Consider one protein from paper PMC4568413, “Functional analysis of the sporulation-specific diadenylate cyclase CdaS in Bacillus thuringiensis” (Frontiers in Microbiology, 2015).

By stoichiometry N is commonly meant a count of units in the complex or per binding partner.

This data set concerns the molecule itself. The experiment in a line: SEC; Superdex 200HR 10/30; about 10 mg/mL CdaS loaded (1 mL); 25 mM Tris-HCl pH 8.0, 150 mM NaCl; 0.5 mL/min; calibrated with Bio-Rad protein standards.

B1: CdaS protein from Bacillus thuringiensis BMB171 (enzyme, UniProt D5TM67 1-201, looked up)
chain: MHEWGLSEELKIQTKQMIEIAEKELSIMRNAIDKEDECILCKMEDIHHMLANVQTLAATYYIQAYLSPYTESSSFITTAIQHLSARKHGALIVVERNETLEALIQTGTTLNAHLTAPLLESIFYPGNPLHDGAVLVKNNHIVSAANILPLTKSTEVDPELGTRHRAAIGLSEKSDALILVVSEETGRTSFALNGILYTISL
notes: CdaS (cyclic di-AMP synthase, sporulation-specific; N-terminal YojJ domain and C-terminal DAC domain) of Bacillus thuringiensis BMB171; full length, the truncated constructs end at residue 201; cdaS gene 606 bp; theoretical monomer mass 23.3 kDa; Cloned in NcoI and XhoI sites of pET28b; also called B. thuringiensis CdaS; wild type CdaS; source: E. coli BL21(DE3) harboring pET28b-cdaS, purified …
On to B1, for which the “stoichiometry N” value was 6.
